From patent publication US20210188989A1 (SYSTIMMUNE, published 2021)

T1: recombinant cynomolgus 4-1BB extracellular domain protein (cynomolgus, UniProt A9YYE7 24-186)
T1 construct: Analyte in the Octet assay
T1 sequence: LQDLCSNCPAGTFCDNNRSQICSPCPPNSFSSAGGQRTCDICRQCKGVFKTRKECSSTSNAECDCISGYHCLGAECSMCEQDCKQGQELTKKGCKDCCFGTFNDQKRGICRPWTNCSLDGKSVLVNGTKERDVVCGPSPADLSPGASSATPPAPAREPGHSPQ


Tests used:
[1] = target: T2, recombinant human 4-1BB extracellular domain protein (human, UniProt Q07011 24-186); test: Octet BLI; chimeric IgG from transfection supernatant on anti-human Fc biosensor; recombinant human 41BB; column kdis(1/s) Human
T2 construct: extracellular domain; Analyte in the Octet assay; also called CD137; TNFRSF9
Text: (§1) The heavy and light chain expression plasmids generated from each well were transiently co-transfected to produce rabbit/human chimeric antibodies. Recombinant antibody supernatants were confirmed to contain antibodies specific for human and cynomolgus 4-1BB using bio-layer interferometry analysis on a ForteBio Octet Red 96 instrument. Anti-human Fc biosensors (Pall ForteBio) were used to capture antibodies in the supernatants. Association to human or cynomolgus 4-1BB was observed by real-time interferometry by placing the biosensors in wells containing recombinant human or cynomolgus 4-1BB extracellular domain protein. Dissociation was measured after transfer of the biosensors into wells containing 10× kinetics buffer (Pall ForteBio). The software provided by the manufacturer was used to analyze the interferometry data. A summary of the primary BCC screening data and the corresponding screening data for 34 recombinant chimeric rabbit/human IgG antibodies is shown in FIG. 2.

[2] = target: T1, recombinant cynomolgus 4-1BB …; test: Octet BLI; chimeric IgG from transfection supernatant on anti-human Fc biosensor; recombinant cynomolgus 41BB; column kdis(1/s) Cynomolgus
Text: as §1

| Binder | koff [1] [s⁻¹] | koff [2] [s⁻¹] |
| --- | --- | --- |
| 411H11 (antibody, human IgG1, kappa, V domains shown, one of the 34 chimeric antibodies; rabbit variable regions on human IgG1 and human kappa; also called 411H11 chimeric rabbit/human IgG) VH: QSVEESGGRLVTPGTPLTLTCTVSGFTISSHHMIWVRQAPGEGLQYIGFINDGDYTYYTNWAKGRFTISRTSTTVDLKMTSLTAADTATYFCARGVDGTSYPGLWGPGTLVTVSS VL: DVVMTQTPASVSEPVRATVTIKCQASQSIGADLAWYQQKPGQPPKLLIYRASTLASGVPSRFSGSGSGTEFTLTISDLECADAATYYCQCIYYGTDDVIYHTFGGGTEVVFKR | 0.001 | 0.0015 |
| 418E4 (antibody, human IgG1, kappa, V domains shown, one of the 34 chimeric antibodies; rabbit variable regions on human IgG1 and human kappa; also called 418E4 chimeric rabbit/human IgG) VH: QSLEESGGRLVTPGTPLTLTCTASEFSLSSYYMSWVRQAPGKGLEWIGSIYASGSAYYASWAKGRFTISRTSTTVDLKMTSLTAADTATYFCVRDPINNDIWGPGTLVTVSS VL: ALVMTQTPSPVSAAVGGTVTINCQASQSIATNLNWYQQKPGQPPKLLIYYTSSLASGVPSRFSGSGSGTEFTLTISGVQCDDAATYYCLGVWNYWGDDGTAFGGGTEVEFKR | 0.0036 | 0.005 |
| 420H6 (antibody, human IgG1, kappa, V domains shown, one of the 34 chimeric antibodies; rabbit variable regions on human IgG1 and human kappa; also called 420H6 chimeric rabbit/human IgG) VH: QQQLEESGGGLVKPGGTLTLTCKASGIDFSSSYYMCWVRQAPGEGLEWIACIYTGGSGTPHYASWAKGRFTISQTSSTTVTLQMTSLTAADTATYFCAREGSLWGQGTLVTVSS VL: AQVLTQTASPVSAAVGGTVTINCQASQSVYSNWLSWYQQKPGQPPKRLIYSASTLASGVPSRFKGSGSGTQFTLTISDLECDDAATYYCAGGYNTVIDTFAFGGGTEVEFKR | 0.00094 | 0.002 |
| 459F1 (antibody, human IgG1, kappa, V domains shown, one of the 34 chimeric antibodies; rabbit variable regions on human IgG1 and human kappa; also called 459F1 chimeric rabbit/human IgG) VH: ESLEESGGDLVKPGASLTLTCTASGIDFSRRYYMCWVRQAPGKGLEWIACMYTGSRDTPHYASWAKGRFTISQTSSTTVTLQMTSLTAADTATYFCAREGNLWGPGTLVTVSS VL: AQVLTQTASPVSAAVGGTVTINCQSSQSVYSNWFSWYQQKPGQPPKLLIYSASTLASGVPSRFKGSGSGTQFTLTISDLECDDAATYYCAGGYNTVTDTFAFGGGTEVEFKR | 0.00075 | 0.0075 |

More lines, now with the values ahead:

| koff [1] [s⁻¹] | koff [2] [s⁻¹] | Binder |
| --- | --- | --- |
| 0.0043 | 0.003 | 416F8 (antibody, human IgG1, kappa, V domains shown, one of the 34 chimeric antibodies; rabbit variable regions on human IgG1 and human kappa; also called 416F8 chimeric rabbit/human IgG) VH: QSLEESGGRLVTPGTPLTLTCTASGFSLSNYYMNWVRQAPGKGLEYIGIISSSGSAYYASWAKGRFTISRTSTTVDLRITSPTTEDTATYFCARGDYGMDLWGQGTLVTVSS VL: AQVLTQTASSVSAPVGGTVTISCQSSQTVYNNNLLSWYQQKPGQRPKLLIYYASTLAFGVPSRFKGSGSGTEFTLTISDLECDDAATYFCQGGYSGWIYVFGGGTEVEVKR |
| 0.0014 | 0.0016 | 418H5 (antibody, human IgG1, kappa, V domains shown, one of the 34 chimeric antibodies; rabbit variable regions on human IgG1 and human kappa; also called 418H5 chimeric rabbit/human IgG) VH: QSLEESGGRLVTPGTPLTLTCTVSGIDLSAYHMSWVRQAPGKGLEYIGMIGSSGTIHYANWAKGRFTISKTSTTVDLKITSPTTEDTATYFCARDSYNSDYAFNLWGPGTLVTVSS VL: AQVLTQTPASVSATVGSTVTISCQSSPSVYKNNQLAWYQQKPGQPPKLLIYLASTLASGVPSRFKGSGSGTEFTLTISDLECADAATYYCAGGYSSSSDTAFGGGTEVEVKR |
| 0.0011 | 0.0018 | 472E4 (antibody, human IgG1, kappa, V domains shown, one of the 34 chimeric antibodies; rabbit variable regions on human IgG1 and human kappa; also called 472E4 chimeric rabbit/human IgG) VH: QSLEESGGRLVTPGGSLTLTCTVSGFSLNNNAISWVRQAPGKGLEWVAIIQNTGTTDYARWAKGRFTISKTSTTVDLKINSPTTEDTATYFCGRGYGFESELVIWGPGTLVTVSS VL: AAVLTQTPSSTSAAVGGTVTISCQSSQSVYNNNALAWYQKKPGQPPKLLIYLASTLASGVPSRFSGSGSGTQFTLTISDLECDDAATYYCLGVYNDDVDNGFGGGTEVVFKR |
| 0.00067 | 0.0041 | 460C3 (antibody, human IgG1, kappa, V domains shown, one of the 34 chimeric antibodies; rabbit variable regions on human IgG1 and human kappa; also called 460C3 chimeric rabbit/human IgG) VH: QSLEESGGDLVKPGASLTLTCTASGIDFSRRYYMCWVRQAPGKGLEWIACIYTGSRDTPHYASWAKGRFTISQTSSTTVTLQMTSLTAADTATYFCAREGSLWGQGTLVTVSS VL: AQVLTQTPSSVSAAVGGTVSISCQSSQSVYSNWFSWYQQKPGQPPKLLIYSASTLASGVPSRFKGSGSGTQFTLTISDLECDDAATYYCAGGYNTVIDTFAFGGGTEVEFKR |
